# Laboratory results from patent US20090208416A1.
# Assays:
# [1] = biological target: NKG2A on cynomolgus monkey NK cells (cynomolgus monkey) (UniProt Q68VD2); assay: FACS cynomolgus whole blood, animal AK565
# [2] = biological target: NKG2A on rhesus monkey (Macaca mulatta) NK cells (rhesus monkey (Macaca mulatta)) (UniProt Q9MZJ3); assay: FACS rhesus whole blood, animal 34459
# [3] = biological target: NKG2A on cynomolgus monkey NK cells (cynomolgus monkey) (UniProt Q68VD2); assay: FACS cynomolgus whole blood, animal AL303
# [4] = biological target: NKG2A on cynomolgus monkey NK cells (cynomolgus monkey) (UniProt Q68VD2); assay: FACS cynomolgus whole blood, animal R390
# [5] = biological target: NKG2A on rhesus monkey (Macaca mulatta) NK cells (rhesus monkey (Macaca mulatta)) (UniProt Q9MZJ3); assay: FACS rhesus whole blood, animal R00023
# [6] = biological target: NKG2A on rhesus monkey (Macaca mulatta) NK cells (rhesus monkey (Macaca mulatta)) (UniProt Q9MZJ3); assay: FACS rhesus whole blood, animal R00061
# [7] = biological target: NKG2A on cynomolgus monkey NK cells (cynomolgus monkey) (UniProt Q68VD2); assay: FACS cynomolgus whole blood, animal AL210
# [8] = biological target: NKG2A on rhesus monkey (Macaca mulatta) NK cells (rhesus monkey (Macaca mulatta)) (UniProt Q9MZJ3); assay: FACS rhesus whole blood, animal R00013
# [9] = biological target: NKG2A on cynomolgus monkey NK cells (cynomolgus monkey) (UniProt Q68VD2); assay: FACS cynomolgus whole blood, animal T788
# [10] = biological target: NKG2A on cynomolgus monkey NK cells (cynomolgus monkey) (UniProt Q68VD2); assay: FACS cynomolgus whole blood, animal AK729
# [11] = biological target: NKG2A on rhesus monkey (Macaca mulatta) NK cells (rhesus monkey (Macaca mulatta)) (UniProt Q9MZJ3); assay: FACS rhesus whole blood, animal O967
# [12] = biological target: NKG2A on rhesus monkey (Macaca mulatta) NK cells (rhesus monkey (Macaca mulatta)) (UniProt Q9MZJ3); assay: FACS rhesus whole blood, animal R99273
# [13] = biological target: NKG2A on rhesus monkey (Macaca mulatta) NK cells (rhesus monkey (Macaca mulatta)) (UniProt Q9MZJ3); assay: FACS rhesus whole blood, animal R00007
# [14] = biological target: NKG2A on rhesus monkey (Macaca mulatta) NK cells (rhesus monkey (Macaca mulatta)) (UniProt Q9MZJ3); assay: FACS rhesus whole blood, animal R00073 (5.6 kg)
# [15] = biological target: NKG2A on rhesus monkey (Macaca mulatta) NK cells (rhesus monkey (Macaca mulatta)) (UniProt Q9MZJ3); assay: FACS rhesus whole blood, animal R00073 (6.1 kg)
# [16] = biological target: NKG2A on rhesus monkey (Macaca mulatta) NK cells (rhesus monkey (Macaca mulatta)) (UniProt Q9MZJ3); assay: FACS rhesus whole blood, animal R00077
# [17] = biological target: NKG2A on rhesus monkey (Macaca mulatta) NK cells (rhesus monkey (Macaca mulatta)) (UniProt Q9MZJ3); assay: FACS rhesus whole blood, mean over animals
# [18] = biological target: NKG2A on cynomolgus monkey NK cells (cynomolgus monkey) (UniProt Q68VD2); assay: FACS cynomolgus whole blood, animal AL389
# [19] = biological target: NKG2A on cynomolgus monkey NK cells (cynomolgus monkey) (UniProt Q68VD2); assay: FACS cynomolgus whole blood, animal M859
# [20] = biological target: NKG2A on rhesus monkey (Macaca mulatta) NK cells (rhesus monkey (Macaca mulatta)) (UniProt Q9MZJ3); assay: FACS rhesus whole blood, animal R00037
# [21] = biological target: NKG2A on rhesus monkey (Macaca mulatta) NK cells (rhesus monkey (Macaca mulatta)) (UniProt Q9MZJ3); assay: FACS rhesus whole blood, animal R00101
# [22] = biological target: NKG2A on rhesus monkey (Macaca mulatta) NK cells (rhesus monkey (Macaca mulatta)) (UniProt Q9MZJ3); assay: FACS rhesus whole blood, animal R00099
# [23] = biological target: NKG2A on rhesus monkey (Macaca mulatta) NK cells (rhesus monkey (Macaca mulatta)) (UniProt Q9MZJ3); assay: FACS rhesus whole blood, animal R00093
# [24] = biological target: NKG2A on rhesus monkey (Macaca mulatta) NK cells (rhesus monkey (Macaca mulatta)) (UniProt Q9MZJ3); assay: FACS rhesus whole blood, animal R00085
# [25] = biological target: NKG2A on cynomolgus monkey NK cells (cynomolgus monkey) (UniProt Q68VD2); assay: FACS cynomolgus whole blood, mean of 10 animals
# [26] = biological target: NKG2A on cynomolgus monkey NK cells (cynomolgus monkey) (UniProt Q68VD2); assay: FACS cynomolgus whole blood, animal T270
# [27] = biological target: NKG2A on cynomolgus monkey NK cells (cynomolgus monkey) (UniProt Q68VD2); assay: FACS cynomolgus whole blood, animal 1221
# [28] = biological target: NKG2A on rhesus monkey (Macaca mulatta) NK cells (rhesus monkey (Macaca mulatta)) (UniProt Q9MZJ3); assay: FACS rhesus whole blood, animal R00041
# [29] = biological target: NKG2A on rhesus monkey (Macaca mulatta) NK cells (rhesus monkey (Macaca mulatta)) (UniProt Q9MZJ3); assay: FACS rhesus whole blood, animal R00025
# [30] = biological target: NKG2A on rhesus monkey (Macaca mulatta) NK cells (rhesus monkey (Macaca mulatta)) (UniProt Q9MZJ3); assay: FACS rhesus whole blood, animal 31828
# [31] = biological target: NKG2A on rhesus monkey (Macaca mulatta) NK cells (rhesus monkey (Macaca mulatta)) (UniProt Q9MZJ3); assay: FACS rhesus whole blood, animal R00055
# UniProt Q68VD2, sequence (Q68VD2 entry or part of it): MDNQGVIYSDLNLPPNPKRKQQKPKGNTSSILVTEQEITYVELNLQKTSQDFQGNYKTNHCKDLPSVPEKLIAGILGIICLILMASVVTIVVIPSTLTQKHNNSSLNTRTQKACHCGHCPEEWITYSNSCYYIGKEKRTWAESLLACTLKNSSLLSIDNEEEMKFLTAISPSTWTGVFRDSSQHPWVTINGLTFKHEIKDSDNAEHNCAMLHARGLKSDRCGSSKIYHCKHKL
# UniProt Q9MZJ3, sequence (Q9MZJ3 whole entry): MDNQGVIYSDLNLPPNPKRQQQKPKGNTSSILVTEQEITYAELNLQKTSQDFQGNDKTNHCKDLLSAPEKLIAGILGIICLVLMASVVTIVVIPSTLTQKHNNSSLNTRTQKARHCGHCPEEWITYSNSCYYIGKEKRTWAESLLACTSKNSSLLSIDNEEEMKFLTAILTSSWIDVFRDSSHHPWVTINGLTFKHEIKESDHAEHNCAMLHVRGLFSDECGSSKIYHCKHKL
substance,measurement,setting,value
mouse IgG2b isotype control (antibody),% NK+,[1],0.3%
same,MFI,[1],0.6
same,% NK+,[2],1.2%
same,MFI,[2],0.7
same,% NK+,[3],0.14%
same,MFI,[3],0.7
same,% NK+,[4],0.2%
same,MFI,[4],0.5
same,% NK+,[5],0.6%
same,MFI,[5],0.3
same,% NK+,[6],0.2%
same,MFI,[6],0.6
same,% NK+,[7],0.3%
same,MFI,[7],0.7
same,% NK+,[8],0.2%
same,MFI,[8],0.6
same,% NK+,[9],0.4%
same,MFI,[9],0.6
same,% NK+,[10],0.3%
same,MFI,[10],0.6
same,% NK+,[11],0.5%
same,MFI,[11],0.7
same,% NK+,[12],0.6%
same,MFI,[12],0.4
same,% NK+,[13],0.7%
same,MFI,[13],0.4
same,% NK+,[14],0.39%
same,MFI,[14],0.4
same,% NK+,[15],0.3%
same,MFI,[15],0.3
same,% NK+,[16],0.5%
same,MFI,[16],0.4
same,% NK+ (Mean),[17],0.5%
same,MFI (Mean),[17],0.5
same,% NK+,[18],0.4%
same,MFI,[18],0.8
same,% NK+,[19],0.2%
same,MFI,[19],0.6
same,% NK+,[20],0.3%
same,MFI,[20],0.5
same,% NK+,[21],0.4%
same,MFI,[21],0.5
same,% NK+,[22],0.3%
same,MFI,[22],0.5
same,% NK+,[23],0.4%
same,MFI,[23],0.6
same,% NK+,[24],0.3%
same,MFI,[24],0.7
same,% NK+ (Mean),[25],0.4%
same,MFI (Mean),[25],0.7
same,% NK+,[26],0.2%
same,MFI,[26],0.6
same,% NK+,[27],1.3%
same,MFI,[27],0.8
same,% NK+,[28],0.3%
same,MFI,[28],0.4
same,% NK+,[29],0.4%
same,MFI,[29],0.4
same,% NK+,[30],0.5%
same,MFI,[30],0.7
same,% NK+,[31],0.9%
same,MFI,[31],0.6
Z199 anti-NKG2A monoclonal antibody,% NK+,[1],90.7%
same,MFI,[1],28.2
same,MFI NK+,[1],31
same,% NK+,[2],96.2%
same,MFI,[2],63.8
same,MFI NK+,[2],66.3
same,% NK+,[3],99.1%
same,MFI,[3],129
same,MFI NK+,[3],130
same,% NK+,[4],99%
same,MFI,[4],32.3
same,MFI NK+,[4],32.6
same,% NK+,[5],96.4%
same,MFI,[5],34
same,MFI NK+,[5],35.3
same,% NK+,[6],40.7%
same,MFI,[6],1.6
same,MFI NK+,[6],2.4
same,% NK+,[7],92.7%
same,MFI,[7],126
same,MFI NK+,[7],136
same,% NK+,[8],97.8%
same,MFI,[8],38.8
same,MFI NK+,[8],39.7
same,% NK+,[9],97%
same,MFI,[9],123
same,MFI NK+,[9],126
same,% NK+,[10],99.4%
same,MFI,[10],37.4
same,MFI NK+,[10],37.7
same,% NK+,[11],84.8%
same,MFI,[11],62.3
same,MFI NK+,[11],73.4
same,% NK+,[12],98%
same,MFI,[12],32.7
same,MFI NK+,[12],33.4
same,% NK+,[13],99.6%
same,MFI,[13],34.9
same,MFI NK+,[13],35
same,% NK+,[14],99.1%
same,MFI,[14],31.6
same,MFI NK+,[14],31.9
same,% NK+,[15],98%
same,MFI,[15],31.9
same,MFI NK+,[15],32.6
same,% NK+,[16],97.1%
same,MFI,[16],30.4
same,MFI NK+,[16],31.3
same,% NK+ (Mean),[17],93.2%
same,MFI (Mean),[17],29.6
same,MFI NK+ (Mean),[17],30.6
same,% NK+,[18],95.5%
same,MFI,[18],223
same,MFI NK+,[18],234
same,% NK+,[19],95.1%
same,MFI,[19],144
same,MFI NK+,[19],152
same,% NK+,[20],96.9%
same,MFI,[20],26.7
same,MFI NK+,[20],27.5
same,% NK+,[21],98.7%
same,MFI,[21],37.1
same,MFI NK+,[21],37.6
same,% NK+,[22],97.6%
same,MFI,[22],31.1
same,MFI NK+,[22],31.8
same,% NK+,[23],97.9%
same,MFI,[23],81.9
same,MFI NK+,[23],83.6
same,% NK+,[24],91.9%
same,MFI,[24],68.4
same,MFI NK+,[24],74.4
same,% NK+ (Mean),[25],96.3%
same,MFI (Mean),[25],106
same,MFI NK+ (Mean),[25],110
same,% NK+,[26],97.7%
same,MFI,[26],113
same,MFI NK+,[26],116
same,% NK+,[27],96.7%
same,MFI,[27],105
same,MFI NK+,[27],109
same,% NK+,[28],89.6%
same,MFI,[28],33.1
same,MFI NK+,[28],36.9
same,% NK+,[29],97.3%
same,MFI,[29],30
same,MFI NK+,[29],30.9
same,% NK+,[30],99.8%
same,MFI,[30],101
same,MFI NK+,[30],101
